The nanobody polyreactivity screen of Harvey et al. (2022)

Test: yeast display, Sf9 membrane polyspecificity reagent, FACS + sequencing; frameworks hold sequencing errors
Method in brief: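 In a synthetic yeast display library (Saccharomyces cerevisiae BJ5465), nanobody expression was induced with galactose for 36–48 hours. FACS gates were set low and high (top ~1%) using anti-HA fluorescence for expression and streptavidin fluorescence for binding of the Sf9 membrane reagent. Each polyreactivity label is drawn from the gate of origin.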

Sequence | polyreactivity (PSR sort gate)
QVQLVETGGGLVQAGGSLRLSCAASGFIFSYNAMGWYRQAPGKERELVASISRADSTNYADSVKGRFTISRDNAKNTVYLQMNSLKPEDTAVYYCAKKGRTARRLYSFDYWGQGTQVTVSS | low polyreactivity
QVQLVETGGGLVQAGGSLRLSCAASGFIFYDYAMGWYRQSPGKERELVASISWSSGSTYYADSVKGRFTISRDNAKNTVYLQMNSLKPEDTAVYYCAADGYPLQLYNYWGQGTQVSVSS | low polyreactivity
QVQLVETGGGLVQAGGSLRLSCAASGFIVAEYAMGWYIQAPGKERELVAAITRSGGRTYYADSVKGRFTISRDNAKNTVYLQMNSLKPEDTAVYYCAAGLGYPRLYYWGQGTQVTVSS | high polyreactivity
QVQLVETGGGLVQAGGSLRLSCAASGFTCYRNAIGWYRQAPRKDREIVAAITSDGITYYADSVKGRFTMSRDNAKNTVYLQMNSLKPEDTAVYYCAADVQADLYSYEYDYWGQGTQVTVSS | low polyreactivity
QVQLVETGGGLVQAGGSLRLSCAASGFTFKFNTMGWYRQAPGKERELVAAISWRGGDTSYADSVKGRFTISRDNAKNTVYLQMNSLKPEDTAVYYCAASPRYPYWYDYWGQGTQVTVSS | low polyreactivity
QVQLVETGGGLVQAGGSLRLSCAASGFTFSYYAMGWYRQAPGKERELVAAISWSGGSTYYADSVKGRFTISRDNAKNTVYLLMNSLKPEDTAVYYSNKVGRAIGPYDYWGQGTQVTVSS | high polyreactivity
QVQLVETGGGLVQAGGSLRLSCAASGIFTYTMGWYRQAPRKERELVAAITNGSTYDADSVKGRFTISRDNAKNTVYLQMNSLKPEDTEVYYCAADRSSAYRWRSAGYYKYDYWGQGTHVTVSS | low polyreactivity
QVQLVETGGGLVQAGGSLRLSCAASGIIFDVYAMGWYRPAPGKERELVAAISYGGGTTYYADSVKGRFTISRDNAKNTVYLQMNSLKPEDTAVYYCAADSYRSIGDDYWGQGTQVTVSS | high polyreactivity
QVQLVETGGGLVQAGGSLRLSCAASGIIIPWYTMGWYRQAPGKERELVAAISSGGRTNYADSVKGRFTISRDNAKNTVYLQMNSLIPEDTAVYYCAANYYRDRDWGQGTQVTVSS | high polyreactivity
QVQLVETGGGLVQAGGSLRLSCAASGITFASYAMGWYRHAPGKEREFVATITTGGTNTYYADSVKGRFTLSRDNAKKTVYLQMNSQKPEDTAVYYCAADSTPYVLSGNYDYWGQGTQVTVSS | low polyreactivity
QVQLVETGGGLVQAGGSLRLSCAASGITFERYVMGWYRQAPGKERELVAVITKRGGNTYYADSVKGRFTISRDNAKNTVYLQMNSLKPEDTSVYYCATRSGRSTGDYWGQGTQVTVSS | high polyreactivity
QVQLVETGGGLVQAGGSLRLSCAASGITFVKYAMGWYRQAPGKERELVAAISGSGGSTSYADSVKGRFTISRDNAKNTVYLQMNSLKPEDTAVYYCNKAIVRYPKTRDYWGQGTQVTVSS | low polyreactivity
QVQLVETGGGLVQAGGSLRLSCAASGLTFYDYAMGWYRQAPGKERELVADIDFNGGSTSYADSVKGRFTISRDNAKNTVYLQMNSLKPEDTAVYDCNTRDRGDVVTGLDYWGQGTQVTVSS | low polyreactivity
QVQLVETGGGLVQAGGSLRLSCAASGNHFSTYTMGGYRQAPGKERELVAAISTSGTSTYYADSVKGRFTISRDNAKNTVYLQMNSLKPEDTAVYYCAASYLRSSQRMDYWGQGTQVTVSS | low polyreactivity
QVQLVETGGGLVQAGGSLRLSCAASGNTFAGNAMGWYRQAPGKERELVAAISRSGVTTRYADSVKGRFTISRDNATNTVYLQMNSLKPEDTAVYYCNADPRLRQNRDYWGQGTQVTVSS | high polyreactivity
QVQLVETGGGLVQAGGSLRLSCAASGPFYPYYAMGSYRQAPGKERELVATISTAGSTNYADSVKGRFTISRDNATNTVYLQMNSLIPEDTAVYYCATRNTWYHRGYDYWGQGTQVPVSS | low polyreactivity
QVQLVETGGGLVQAGGSLRLSCAASGRIFWRNDMGWYRQAPGKERELVAAISGSGGSTSYADSVKGRFTISRDNAKNTVYLQLNSLKPEDTAVYYFAADSESVGYEYWGQGTQVTVSS | high polyreactivity
QVQLVETGGGLVQAGGSLRLSCAASGRIFYGNAMGWYRHAPGKERELVAAITRSGSSTYYADSVKGRFTISRDNAKNTVYLLMNSLKPEDTAVSYCAVKYFDYVGQYAYYYWGQGTQVTVSS | high polyreactivity
QVQLVETGGGLVQAGGSLRLSCAASGRTFTKYAMGWYRQAPGKERELVAAISGNGGSTHYADSVKGRFTISRDNAKNTVYLQMNSLKPEDTAVYYCAADHRHKSNSWGQGTQVTVSS | low polyreactivity
QVQLVETGGGLVQAGGSLRLSCAASGRTFVGNAKGWYRPAPGQERELVADITWSGDITYYADSVKGRFTISRDHAKNSVYLQMNSLKPEDTAVYYCAADYHRRRTDYDYWGQGTQVTVSS | low polyreactivity
QVQLVETGGGLVQAGGSLRLSCAASGRTLIGNAMGWYRQAPGKERELVAAISFRGTRTYYADSVKGRFTISRDNAKNTFYLQMNSLKPEDTAVYYCNVYTRDRGYDYWGQGTQVTVSS | high polyreactivity
QVQLVETGGGLVQAGGSLRLSCAASGRTLTCYAMGWYRQAPGKERELVAAISWSGGSTYYADSVKGRFTISRDNAKNTVYLQMYSLIPEDTAVYYCAADRVRSYFSRYYSTPLDYYWGQGTQVTVSS | high polyreactivity
QVQLVETGGGLVQAGGSLRLSCAASGRTMPYYAMGWYRQAPGKERELVATISSRGGSTYYADSVKGRFTISRDNAKNTVYLQMNSLKPEDTAVYYCAARGNTPRTRRYGYWGQGTQVTVSS | high polyreactivity
QVQLVETGGGLVQAGGSLRLSCAASGRTYSTYAMGWYRQAPGKERDLVADISWRGAPTYYADSVKGRFTISRDNAKNTVYLQIISQKPEYTAVYYFAAAPYGYLRYEYWGLGTQVTVSS | high polyreactivity
QVQLVETGGGLVQAGGSLRLSCAASGSIFGDNAMGWYRQAPGKERELVAAIDQSGDSTYYADSVKGRFTISRDNAKNTVYLQMNSLKPEDTAVYYCAAQSYDYWYDYDYWGQGTQVTVSS | high polyreactivity
QVQLVETGGGLVQAGGSLRLSCAASGSIFIYFAMGWYRQAPGKERELVAAIDRSGGNTYYADSVKGRFTLSRDYAKNTVYLQMNSLKPEDTAVYYCAALVHRRVQYDYWGQGTQVTVSS | high polyreactivity
QVQLVETGGGLVQAGGSLRLSCAASGSIFKNNAMGGYRQAPGKERELVAAIRSYGGSTYYADSVKGRFTISRDNAKNTVYLQMKSLKPEDTAVYYCAARYRSYPTYYQYNYWGQGTQVTVSS | high polyreactivity
QVQLVETGGGLVQAGGSLRLSCAASGSIFQGYAMGWYRQAPGKERELVAGITSSGGSTHYADSVKGRFTISRDNAKNTVYLQMNSLKPEDTAVYDYWGQGTQVTVSS | low polyreactivity
QVQLVETGGGLVQAGGSLRLSCAASGSIFQYYAMGSYRQAPGKERELVAAISSGGRTNYADSVKGRFTISRENAKNSVYLQMNSLKPEDTAVYYCAAARYYYQVYRWEYDYWGQGTQVTVSS | high polyreactivity
QVQLVETGGGLVQAGGSLRLSCAASGSIFTYYAMGWYRQAPGKEREFVAGISWSGGRTYYADSVKGRFTISRDNAKNTVYLQMNSLKPEDTAVYYCAAEIHDRFDSWGQGTQVTVSS | low polyreactivity
